Consider 74 sequences from the supplement of paper PMC12636428.

This series has as its system Saccharomyces cerevisiae. Nature of the series: transcriptional activation domain activity (GFP:mCherry ratio, weighted mean of sorted bins, harmonized to initial dataset scale) (arbitrary fluorescence ratio units); higher = stronger transcriptional activation. The note with it: beta-estradiol 1 µM; induction time 4 h. Put shortly: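 Barcoded tiles were sequenced after cells were sorted into 8 bins by GFP:mCherry ratio. Before sorting, cultures had been diluted 1:5 into SC with 1 uM beta-estradiol and held for 4 hours at 30 °C. The tiles were fused to an estradiol-inducible synthetic transcription factor and integrated at URA3 in yeast diploids carrying a GFP reporter. Activation activity is the read-weighted mean of bin median fluorescence, averaged over barcodes and linearly mapped onto the initial dataset scale, and tiles under 50 reads were left out.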

Consider “TATARVRAVGENQKLEIVLGESDGTEEECQCGRRNKNANVKKYVQGVRAGIHY”, for which the “transcriptional activation domain activity” value was 35000.

Consider “SSSSQTSTSASVLLVFGSDERYVKAAGDLLKSRLNVKGGGKGTRWSGKYTGVW”, for which the “transcriptional activation domain activity” value came out at 31200.

“MLFLMYIFYLCRCLLLFFLTDIMISLLLPSLFSPLITLFLFFTLFKYMYIYAN”: the “transcriptional activation domain activity” value was 65400.

For “NLLQHIIPPFFINHHHHYYSPFHTSYTFFFSTFVYALFFYIIMYLSIFISLLL”, the “transcriptional activation domain activity” value was 62200.

Take “LIRAVWSHFKADFNAIYLGRLLVLLAYQKRRPRPPTGYNLGHHADPGLHTFWA”: the “transcriptional activation domain activity” value worked out at 38200.

“HFSPSLSISSLPSLCCLFFFIIFSTSLLWSFFPLPYLTSPYLTLPYTTFFLFP”: the “transcriptional activation domain activity” value came out at 48000.

For “LVTVRTMYRSYVEHGSGIGLTFARLITKDGLVLAISDFVLVFSTFLCVPFVKL”, the “transcriptional activation domain activity” value is 44300.

Turning to “LIVVTLSWDVAVIITFLKHRITLRRLKMQSFLSLSFLFKMLIICIFRFFIGVC”, the “transcriptional activation domain activity” value worked out at 88200.

On to “STPSAFGAQPTQTTGAFGQPAQTSAFGAQPATGGFGNTGSAFGQARPSAFGST”, for which the “transcriptional activation domain activity” value was found to be 16900.

On to “RDRGDSHRRHHHRSGSDDERRHRSDRRAREKDGDRSRSHRSSRHADEREERDE”, for which the “transcriptional activation domain activity” value stood at 17600.

“TGVGLGVCARHEFVLANSAVDLQRGERYANMDYCAASLLRHICLLLFIVFLYD”: the “transcriptional activation domain activity” value turned out to be 57700.

“MMSDSGQDEKTLPQADKNGTSQVAVPLEATEASEQALLRRLLRKTDLLVMPGL”: the “transcriptional activation domain activity” value is 24200.

Turning to “MRFPPLLFSFFLFFLFFFHLFLFLFHNLFFFYQSFFSSQPLFSFSLSFLSSSL”, the “transcriptional activation domain activity” value was 42800.

On to “GYDDTVVLDGCYAAAIRWKSFAYVSTAVRISWKRYLMRFLLRISPWLTIIFSV”, for which the “transcriptional activation domain activity” value came out at 57600.

Turning to “IIYVPQARLMNFFNALTTQSFLYFWAVCLMRLHIAAFLPNLHNGKPYLITVYT”, the “transcriptional activation domain activity” value turned out to be 47500.

With “GILFATEGLYTMRFSSWYVRGLFISASIMLFFCYVVARVIIVVVMFTSLRGLP”, the “transcriptional activation domain activity” value came to 49900.

Turning to “HSKHSAEGIVVSKYLMCFLLFCVWIFTHLVEVAVLLLQIIYNTLFILRSLFLH”, the “transcriptional activation domain activity” value was 63800.

Consider “RTPTYDRRTIIQGLQQAEMNLDNSFKRVSEMILMLMIRMHDWSTLRRRFQMDQ”, for which the “transcriptional activation domain activity” value turned out to be 45200.

As for “FDAALQHCRHGIMILNNSSRPEWMCQYLVPIFRRLSITPFFFGGVRPTRLPQL”, the “transcriptional activation domain activity” value was 68800.

Take “FLARLESLHRALGLYLWFSYRYPNIIISQALAFHAKSMLEAKIDDLLQKMSFD”: the “transcriptional activation domain activity” value is 44300.

For “MFLLFRSPCLLVLYIFWVGQSGVGLRGVGVHHFFFFFFSLLAALLLFCLCGAI”, the “transcriptional activation domain activity” value was determined as 29400.

“SVEVEMEDAPKPKRRGRPPGSGKKKAPAGEDAAAAAPEKKKRTPAKKASAGSA”: the “transcriptional activation domain activity” value turned out to be 42700.

With “TAALIELILAIAFRVTMYHLALYGSNVLFRYMRLSNELSNRYANCLVATLNAR”, the “transcriptional activation domain activity” value is 23200.

For the sequence “MCIKLPLYPASFFIHRSLPLITSVFDLNLTLMVSLCPRIVPISFFACALLLVP”, the “transcriptional activation domain activity” value was found to be 53000.

Regarding “MPHTHLIFESCFFIVFSPNDLLTTDYLFFLPFPFPFPFPFLFPFPFLFPFLFL”, the “transcriptional activation domain activity” value was found to be 63100.

As to “EHVHVNKIPVRVSHGSGFELMGKSSFIFKGFRSLGILMLIFWSKANHILIVTV”, the “transcriptional activation domain activity” value was 70700.

On to “SRREDGVKVEDADDGGVSLEKGVEDLNIDNNNGKKEKGGVFVHCAAGKSRSVS”, for which the “transcriptional activation domain activity” value amounted to 43100.

Take “TLRVLLLQISPLAYARGLKDFLIHLISWTDGTWDSLDPLPWWWLYHVYWPLQF”: the “transcriptional activation domain activity” value was determined as 81000.

On to “SFPIRHIEDKLRNKGHVKTGILSANDGVPPTPNLLDYDWNNLNITGYEWISSE”, for which the “transcriptional activation domain activity” value worked out at 93900.

Regarding “IKDFEAHLFAIILYHLSFFGCRALGVVSMLKCQGQMCDPWSLMYRGLYVFYRL”, the “transcriptional activation domain activity” value is 35900.

Regarding “PSPVLCFRQLCFLVYLIFFNFLLLFCLFAKAEGGIPSCPLQPLDSLYFSLQGF”, the “transcriptional activation domain activity” value worked out at 49400.

On to “ILRLSVVLKPHHYWWFLLHLLLILLLVAFTCSSFLILKHGPVWILALFLLLHI”, for which the “transcriptional activation domain activity” value came out at 45400.

“VIRGLEELVYLDIRLPFQVEFLNMNPLLLGPACILRSMTLVILSSDGCFPTSR”: the “transcriptional activation domain activity” value came to 54000.

Turning to “MSHSASTSASTSTAAGEPSAKRMRLGTRSCAECRRRKVRCIVPPGARVCEGCS”, the “transcriptional activation domain activity” value was 75900.

Regarding “MPAIFFGSQIGGETLQPLSYTGLPWKLLIQDILLFLRWCYYLPNIVIPLWPWP”, the “transcriptional activation domain activity” value is 67400.

As for “MPALQCALLLHQVNMAFLQWNCMLYTIYHFRIIHIIILLLHMCTRTIICLLNG”, the “transcriptional activation domain activity” value was determined as 37700.

With “DLDNDIDFETAYQMLSSNFDDQMSAHIHENTFSATSPPLLTHELGIIPNVATV”, the “transcriptional activation domain activity” value stood at 95500.

With “MFTRYLLLLLFAPLIYILGFFAASLSTHQPDYFYTWTRDSALVAQTNDTLLHD”, the “transcriptional activation domain activity” value stood at 30900.

For the sequence “AIFMSDGSQALCRLIYLIGIATRFFGLSMMLCIVVDVLNLVTFYLNVFYLIQW”, the “transcriptional activation domain activity” value amounted to 47500.

For “HGRARPSRASASVPARKKTKSKVKKRASAAVVGSDDEDGEERPKKRRGGGGGA”, the “transcriptional activation domain activity” value was determined as 33100.

As to “ASGSGSGSKSGGGGARQGGGGAAGAAGGKGGGAAGGSKGGGGAWGKMKAAASD”, the “transcriptional activation domain activity” value worked out at 18700.

In the case of “KYLSTCLKSCNTQLLDGILNTFARIFLSLGHLVEIMPELGTSILFQTYLFALQ”, the “transcriptional activation domain activity” value amounted to 52900.

Consider “EDEEEEAEKAESKPPKKARKSKAEPAVDEDEPAVKPKKKATAASKKRKAESEE”, for which the “transcriptional activation domain activity” value was 21100.

As for “KAKAGADGDAAPKKKKAASKKDSNGSDAEDSDGEAKPKPKLKKKAAAAGKAKA”, the “transcriptional activation domain activity” value is 29400.

On to “LRSVGRGGNSLVVIGFFVMNGVGIVLERVWKRICGRSVRGIWGWIWTFSWLAL”, for which the “transcriptional activation domain activity” value came out at 79900.

“AAAGNATAEAGAAEGKAKGKGKDAAAAEGAAAAGGAAAAEGKAKGKGKDAAAA”: the “transcriptional activation domain activity” value worked out at 46600.

On to “ATIMYLGLCITFLPFLVIYVIYNICSAFYVVLLGLGLLVYWLTRNSRLLKWAF”, for which the “transcriptional activation domain activity” value amounted to 45800.

On to “MPPQSRQSRMPEAPAEPRSARGRVTKRRSGNACVRCRRQKIKCSGSHPCEACS”, for which the “transcriptional activation domain activity” value was 24800.

Consider “SDDVNSTMEDDDTPIEKHWLNIDQPLGSEKETTTLSILWMLLLLQLSHICTDP”, for which the “transcriptional activation domain activity” value came to 76600.

For the sequence “TYSDVDGEILWPPPVMNVMMIERCGAVCCRVSVGWVLLRRWAQVKRKWETIVL”, the “transcriptional activation domain activity” value amounted to 41700.

As for “GKKKGKRGKGKGKRGRGKGRGEREGWQGKAAGKEGAGKKGAGEGEQGKGSRGK”, the “transcriptional activation domain activity” value came to 44300.

As for “VYPEKVIFAPFEIFVVLVSFFNLVLFLFCFPFTLYPPKRWLRIVVLLFLFFFC”, the “transcriptional activation domain activity” value is 50400.

Consider “MIYLASFLLLTVDSSIWSVPITIFIPYTIYLFPPHTYICVLFARILIFHLLSF”, for which the “transcriptional activation domain activity” value is 61200.

Consider “MSLAHGHLFNRLQAVGPWDSLCCMGCDLSTLYLAALHSPWRVSWWRFLILGLL”, for which the “transcriptional activation domain activity” value was 58200.

As to “ANDDDGEEQEEQEEKPKKKRKRTASTPAETAGAGPSKPKPRPRPKKTSAVVPP”, the “transcriptional activation domain activity” value amounted to 28200.

Take “EEEGDEDVSGSEGSSRRKGRQRNEEEDDRSAGRRSHRLKDKSRSSTRNRRGSD”: the “transcriptional activation domain activity” value came out at 13600.

For “IPLKKLCHAAIADLFRFLVLSKKDSKDIVARQRLQVAAWMGLWPPKIQRNKWV”, the “transcriptional activation domain activity” value amounted to 45600.

For the sequence “SSSKSAADVAAGEGKKTEKAGEKKEGTAAAAEKKKIEEKPAREEKKEEEKVPV”, the “transcriptional activation domain activity” value was 24300.

Regarding “WLMYYIHATGDTKVSLPFNPSRVIKINMVLLSHLVAWINYLPLVVSYVHWRYW”, the “transcriptional activation domain activity” value turned out to be 51000.

As to “MSVFILFVGCFYCMVCLFSPSYMWFFCGVISILFLIFPFLHDFQLYFFFGGGH”, the “transcriptional activation domain activity” value came to 41700.

Consider “VVLPCLNLVLAVRKYFVRYLMMPRYSTLQVFGEENAAGYRPMLFWEIEPWYVA”, for which the “transcriptional activation domain activity” value stood at 41800.

On to “LSADYLCQYSGSLIGKHFKSLAQVMPFIIYDLVPKTVLNAWNVIGNLVVMLWH”, for which the “transcriptional activation domain activity” value came out at 46100.

Consider “LITIPINYTVYIFVLFPFYVLSGTLCVGYYFHSYSPEFWLLRAWDFFFCFIPM”, for which the “transcriptional activation domain activity” value turned out to be 74300.

Consider “ESEGDPEPQPAKSQSRRRQSRGRGRRGAESDSESVARSDVSATGGRRNRQRQK”, for which the “transcriptional activation domain activity” value was determined as 43500.

As to “MLIIGRIARWYIHPIAIVWFYLLHVSHFLYFLLVAEFQPRYIHVYLYLYLLST”, the “transcriptional activation domain activity” value stood at 47400.

With “LNRAARRSTPASRTRREGAIGARVRRRERESERARARTKMGRRSCLRVSAAAT”, the “transcriptional activation domain activity” value was determined as 61600.

As to “WLLFLQEYGTITLTLLQSLEYWISNIDLTDESKSQLSKQGRACMYHLIVLTLR”, the “transcriptional activation domain activity” value is 53700.

With “DLLVLLRKCREVALRIIQKESCFNVLNLRRELVSNLLLSFWVVGQSLTTKVPM”, the “transcriptional activation domain activity” value was found to be 33000.

As for “VSASVVYLFFIFIFSLSYPILSCPYLLTHSLTLSILPPFSFPLPFFFLSFFLP”, the “transcriptional activation domain activity” value came to 58800.

With “LLLFIHSLIHGTMLLFWRWPMLSILQVPMHPFLLLVCFNLFSQSVPPVLVSAA”, the “transcriptional activation domain activity” value worked out at 59500.

In the case of “IPPLVLFFHFHFPSCGGCAFCRCLFLCLLLLALSLPLIPVSLIMCYPCHMYLL”, the “transcriptional activation domain activity” value was 41100.

As to “MPAVKKDAPSQRQQDKESKRARGALSCAECRRLKLKCDKTVPCSSCKRRGCSA”, the “transcriptional activation domain activity” value is 34600.

For “EAPREIKAKPEKKKAKPAEAAAPKKESKGKKVKADKKAGADKKADPAAAPAAG”, the “transcriptional activation domain activity” value came to 15300.

Regarding “PAPAPMGRRTFAVDVDESAHSLAKKVKAARVRGYNYIIVVGERDAERGTAAVQ”, the “transcriptional activation domain activity” value was found to be 44800.
